Measured values as given in patent US20260265383A1 (FUSION ANTIBODIES, published 2026).
Changes are numbered by the printed parent chain.

T1: RAMP2 IMM ECD V1
T1 construct: The entry includes a signal peptide whose residues cannot be read (drawing); The text says 'RAMP2 ECD'; also called RAMP2 ECD
T1 chain: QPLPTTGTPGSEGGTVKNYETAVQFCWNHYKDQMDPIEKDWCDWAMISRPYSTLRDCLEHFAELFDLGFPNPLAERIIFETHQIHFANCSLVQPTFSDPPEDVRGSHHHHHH

T2: RAMP2 Scr V1
T2 construct: it is not part of the secreted protein; Expressed in HEK cells
T2 chain: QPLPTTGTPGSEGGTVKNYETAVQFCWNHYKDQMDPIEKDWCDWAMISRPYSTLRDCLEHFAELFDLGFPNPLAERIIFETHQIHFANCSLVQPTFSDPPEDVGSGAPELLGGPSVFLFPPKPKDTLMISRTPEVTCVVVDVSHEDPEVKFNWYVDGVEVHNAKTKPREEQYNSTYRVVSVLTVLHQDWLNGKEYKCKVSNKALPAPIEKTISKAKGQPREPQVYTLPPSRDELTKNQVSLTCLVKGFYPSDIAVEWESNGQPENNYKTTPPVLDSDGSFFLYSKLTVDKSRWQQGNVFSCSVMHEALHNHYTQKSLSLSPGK

T3: RAMP3_Scr_V1
T3 construct: Expressed in HEK cells
T3 chain: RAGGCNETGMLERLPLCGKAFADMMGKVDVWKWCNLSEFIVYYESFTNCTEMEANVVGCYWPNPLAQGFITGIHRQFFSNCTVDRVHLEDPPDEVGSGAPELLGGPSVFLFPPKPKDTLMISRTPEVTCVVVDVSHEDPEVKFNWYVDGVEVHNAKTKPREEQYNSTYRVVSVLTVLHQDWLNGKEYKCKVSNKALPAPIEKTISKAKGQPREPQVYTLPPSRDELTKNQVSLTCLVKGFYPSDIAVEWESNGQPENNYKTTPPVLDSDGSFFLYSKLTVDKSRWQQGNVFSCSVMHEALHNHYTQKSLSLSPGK

B1: RAMP2-rIgG-k1-1A7#1 (antibody, V domains shown)
VH: QSVEESGGDLVKPEGSLTLTCTASGFSFSISYWICWVRQTPGKGLEWIGCIYGGSSGRPYYASWAKGRFTISKTSSTTVTLQMTSLTAADTAAYFCATTAYGGYGYGTWGPGTLVTVSS
VL: DGVMTQTPSSVSAAVGSTVTISCQASQSVFSNNYLSWYQQKPGQPPKLLIYTASSLASGVPSRFKGSGSGTQFTLTISDLECADAATYYCQCTYGKSGTDTYLNAFGGGTEVVVK
notes: tested as recombinant rabbit IgG-kappa1 made in CHOEBNALT85-1E9 cells (supernatant); also called rlgG-k1-1A7
B2: RAMP3-rIgG-k1-4C10 (antibody, V domains shown)
VH: QEQLEESGGGLVKPTDTLTLTCTVSGFSLSTNSIFWVRQAPGNGLEWIGAISYAGGTAYASWAKSRSTITRNTNLNTVTLKMTSLTAADTATYFCGRGYVGYSRSKGDIWGPGTLVTVSS
VL: DGVMTQTPSSTSAAVGSTVTISCQSTQSIINNNWLAWYQQKPGHSPKLLIYDASTLASGVPSRFSGSGSGTQFTLTISDLECDDAATYYCAARYSGDIYTFGGGTEVVVR
notes: tested as recombinant rabbit IgG-kappa1; also called rlgG-k1-4C10; 4C10_#19
B3: RAMP3-rIgG-k1-5H9 (antibody, V domains shown)
VH: QSLEESEGGLFKPTDTLTVTCIVSGLSLSRNAMSWVRQAPGSGLEWIGVIVTYGDTYYASWAKSRSTITRNTNENTVTLKMTSLTAADTATYFCIGGLDIWGPGTLVTVSS
VL: DVVMTQTPASVEAAVGGTVTIKCQATESIASWLAWYQQKAGQPPKLLIYEASKLESGVPSRFKGSGSGTEFTLTISDLECADAATYYCQSYLYSSSNTYGNSFGGGTEVVVK
notes: tested as recombinant rabbit IgG-kappa1; also called rlgG-k1-5H9; H9_#22
B4: RAMP3-rIgG-k1-6B8 (antibody, V domains shown)
VH: QSLEESGGGLVKPEGSLTLTCTASGFFFDRSYWICWVRQTPAKGLEWIACIVVSSGATYYASWAKGRLTLSKTSSTTVTLQMTSLTAADTAIYFCARDSSSTSGVEFNLWGPGTLVTVSS
VL: DVMMTQTPASVSEPVGGTVTIKCQASQNIGNNLAWYQQKPGQPPKLLIYLTSTLASGVPSRFKGSRSGTEFTLTISDLECADAATYFCQSYLYTTYAFGGGTEVVVK
notes: tested as recombinant rabbit IgG-kappa1; also called rlgG-k1-6B8; 6B8_#24
B5: RAMP3-rIgG-k1-6C2 (antibody, V domains shown)
VH: QEQLEESEGGLFKPTDTLTLTCTVSGFSLSVYALTWVRQAPGNGLEWIGAIGNSGNTYYASWAKSRSTITRNTNENTVTLKMTSLTAADTATYFCARGYVRINVWGPGTLVTVSS
VL: DGVMTQTPSSVSAAVGGTVTISCQSSQSVYKNNYLSWFQQKPGQPPKLLIYEISKLESGVPDRFSGSGSGTQFTLTISGVQCDDAATYYCLGGYDDDSDTSFGGGTEVVVK
notes: tested as recombinant rabbit IgG-kappa1; also called rlgG-k1-6C2; 6C2_#25
B6: RAMP3-rIgG-k1-6D8 (antibody, V domains shown)
VH: QSVEESGGDLVRPEGSLTLTCTASGFSLSSSYWICWVRQAPGKGLEWIACIVSNTGTTYYASWAKGRLTLSKTSSTTVTLQMTSLTAADTATYFCARDNNSKSGVEFNLWGPGTLVTVSS
VL: B4 VL with M3V, Q42H, T51A, F87Y
notes: tested as recombinant rabbit IgG-kappa1; also called rlgG-k1-6D8; 6D8_#28
B7: RAMP2-rIgG-k1-1H6#4 (antibody, V domains shown)
VH: QEHLVESEGGLFKPTDTLTLTCTVSGFSLSSYGVSWVRQAPGKGLEWIGVIGATGSAYYANWAKSRSTITRNTNLNTVTLKVTSLTAADTATYFCARDDVLTGMDLWGPGTLVTVSS
VL: APVLTQTPASVEAAVGGTVTIKCQASQSINSWLSWYQQKPGQPPKLLIYQASKLASGVPSRFKGSGSGTEYTLTISDLKCADAATYYCQSYDYASNSGYVSNPFGGGTEVVVK
notes: tested as recombinant rabbit IgG-kappa1; also called rlgG-k1-1H6
B8: RAMP2-rIgG-k1-1H7 (antibody, V domains shown)
VH: B1 VH with V3L
VL: AAVLTQTPSSTSGPVGGTVTIKCQASQNIGSFLSWYQQKPGQPPKLLIYSASSLATGVPSRFSGSGSGTQFTLTISGVQCDDAATYYCLGFYAYRSDDGTAFGGGTEVVVK
notes: tested as recombinant rabbit IgG-kappa1; also called rlgG-k1-1H7; 1H7_#5
B9: RAMP2-rIgG-k1-1A10 (antibody, V domains shown)
VH: QSLEESGGGLVQPEGSLTLTCTASGFSFSSSYYMCWVRQAPGKGLEWIGSIYTLSGSTAYASWAKGRFTISKTSSTTVTLQMTSLTAADTAMYFCARDSDGWGVSFNLWGPGTLVTVSS
VL: AAVMTQTPSSLSAAVGGTVTIKCQASQSIRNQVSWYQQKPGQRPKLLIYRASTLESGVPSRFKGSGSGTDFTLTISDLECADAATYYCQCTYGSSSSNRYGNTFGGGTEVAVK
notes: tested as recombinant rabbit IgG-kappa1; also called rlgG-k1-1A10; 1A10_#7
B10: RAMP2-rIgG-k1-2A6 (antibody, V domains shown)
VH: QSVEESGGDLVKPGASLTLTCTASGFSFSSRYYMCWVRQAPGKGLEWIGCIFGGSSGNTHYASWAKGRFTIAKTSSTTVTLRMTSLTAADTATYSCVRSDAWGVNLWGPGTLVTVSS
VL: DVVMTQTPASVEAAVGGTVTIKCQASQSISNLLAWYQQKPGQPPKRLIYGASNLESGVPSRFKGSGSGTQFTLTISDLECADAATYYCQCSYDGSSPNAFGGGTEVVVE
notes: tested as recombinant rabbit IgG-kappa1; also called rlgG-k1-2A6; 2A6_#9
B11: RAMP2-rIgG-k1-2A8 (antibody, V domains shown)
VH: QSLEESGGGLVQPEGSLTLTCTASGFDLSRYYYIFWVRQAPGKGLEWIGCIYIGGNIITYYASWAKGRFTISKTSSPAVTLQMTSLTVADTATYFCARGTGYGGYGDVSLWGPGTLVTVSS
VL: APVLTHTAASVSEPVGGIVTINCQASQSIGSNLAWYQQKSGQPPKLLIYDASNLVSGVPSRFKGSRSGTEYTLTISDLECADAGTYYCQGYYYGSSTSYNLVSFGGGTEVVVK
notes: tested as recombinant rabbit IgG-kappa1; also called rlgG-k1-2A8; 2A8_#12
B12: RAMP2-rIgG-k1-2H3 (antibody, V domains shown)
VH: B10 VH with G49A, G57D, T59S, H60Y, S63R, A72S, S95F
VL: AAVMTQTPSPVSGVVGGTVTIKCQASQSIYGYFSWYQQKPGQPPKLLIYSASDLASGVPSRFKGSGSGTQFTLTISDLECADAATYYCQCSYDGSSPNAFGGGTEVVVK
notes: tested as recombinant rabbit IgG-kappa1; also called rlgG-k1-2H3; 2H3_#13
B13: RAMP3-rIgG-k1-3A5 (antibody, V domains shown)
VH: QSLEESGGGLVQPEGTLTLTCTVSGFSFSSNYWICWVRQAPGKGLEWIACIVTNSGTTYYTSWAKGRLTLSKTSSTTVTLQMTSLTAADTATYFCARDNNSVTGVEFNLWGPGTLVTVSS
VL: DVVMTQTPASVSAAVGATVTIKCQASETIGNNLAWYQQKPGQPPKVLMFLASTLASGVPSRFKGSRSGTEYTLTISGVQCDDAATYYCQSYLGTSYAFGGGTEVVVK
notes: tested as recombinant rabbit IgG-kappa1; also called rlgG-k1-3A5; 3A5_#15
B14: RAMP3-rIgG-k1-3A12 (antibody, V domains shown)
VH: QEQLEESEGGLFKPTDTLTLTCTVSGFSLSSYGVSWVRQAPGNGLEYIGFIGKTGSAYYASWAKSRSTITRNTTLNTVTLKMTSLTVADTATYFCARLGPGSIYYFDIWGPGTLVTVSS
VL: DPMLTQTPSSKSVPVGGTVTINCQSSESVYDNNWLAWFQQKPGQPPKRLIYSASTLASGVSSRFKGSGSGTQFTLTISDVQCDDAATYYCTGYKSRTTDEIAFGGGTEVVVK
notes: tested as recombinant rabbit IgG-kappa1; also called rlgG-k1-3A12; 3A12_#17

Tests used:
[1] = target: T1, RAMP2 IMM ECD V1; test: direct ELISA, 6-well supernatants at 8-500 ng/ml on RAMP2 ECD coated at 1.0 µg/ml
Protocol: Immuno modules (Thermo Scientific™) were coated with RAMP2 ECD or RAMP3 Scr, 1.0 μg/ml in PBS, 100 μl/well, 20 h at 4° C. Supernatants of anti-RAMP2 and anti-RAMP3 rabbit IgG-κ1 antibody clones were transfered into wells at different concentrations (8-500 ng/ml; 100 μL/well, in PBS-0.05% Tween 20-1% BSA) and the plates were incubated for 60 min. on a shaker at room temperature (RT). Goat anti-rabbit-IgG HRP conjugate (Invitrogen; 1:20 000 in 1% BSA-PBS-0.05% Tween 20; 100 μL/well) was used as secondary reagent in direct ELISA (incubation time 60 min. at RT). To visualize, TMB substrate was added for 10 min. and stopped with 0.5 M H₂SO₄. Between every incubation step the wells were washed 4 times with PBS-Tween 20.

[2] = target: T2, RAMP2 Scr V1; test: ELISA, single-clone supernatants on RAMP2 Scr
Protocol: (§1) 8 specific ELISA positive pools against both targets were selected for single clone isolation. Single clones were selected in LB-Amp solid medium, colonies were grown in liquid medium o/n on shaker at 37° C. in 96-well microtiter plates (2-4 96-well plates per target), plasmid DNA was isolated and transfected into CHOEBNALT85-1E9 cells for antibody transient production. 48-72 hours after transfection supernatants were analyzed by ELISA on RAMP2 Scr or RAMP3 Scr respectively.

[3] = target: T3, RAMP3_Scr_V1; test: ELISA, single-clone supernatants on RAMP3 Scr
Protocol: as §1

[4] = target: T2, RAMP2 Scr V1; test: ELISA, 24-well supernatants on coated antigen
Protocol: (§2) Amplified VH and VL were purified and altogether 20 cloning reactions per target were performed for cloning into rabbit IgG-κ1 encoding two-cassette expression plasmid by using Ligase Independent Cloning (LIC) method. Resulting antibody library pools were grown in E. coli strain DH5a. Plasmid DNA was purified and transfected into CHOEBNALT85-1E9 cells for transient production of antibodies in serum-free media for 48 hours in 24-well format. Cell culture supernatants were tested for RAMP2 Scr and RAMP2 ECD or RAMP3 Scr binding in ELISA (wells coated at 1 μg/ml in PBS).

[5] = target: T3, RAMP3_Scr_V1; test: ELISA, 24-well supernatants on coated RAMP3 Scr
Protocol: as §2

| Binder | titer [1] | binding result [3] | binding result [4] | other results |
| --- | --- | --- | --- | --- |
| B1 | < 8 ng/mL | – | – | binding result [2]: binds |
| B2 | – | binds | – | – |
| B3 | – | binds | – | – |
| B4 | – | binds | – | – |
| B5 | – | binds | – | – |
| B6 | – | binds | – | – |
| B7 | < 8 ng/mL | – | binds | – |
| B8 | < 8 ng/mL | – | binds | – |
| B9 | < 8 ng/mL | – | binds | – |
| B10 | < 8 ng/mL | – | binds | – |
| B11 | < 8 ng/mL | – | binds | – |
| B12 | < 8 ng/mL | – | binds | – |
| B13 | – | – | – | binding result [5]: binds |
| B14 | – | – | – | binding result [5]: binds |
